This passage reports reverse-splicing fitness results from the RNAGym collection of RNA variant scans (doi:10.1093/molbev/msab373).

Sequences and labels used below:
B1: Azoarcus group I ribozyme (parent)
chain: GUGCCUUGCGCCGGGAAACCACGCAAGGGAUGGUGUCAAAUUCGGCGAAACCUAAGCGCCCGCCCGGGCGUAUGGCAACGCCGAGCCAAGCUUCGGCGCCUGCGCCGAUGAAGGUGUAGAGACUAGACGGCACCCACCUAAGGCAAACGCUAUGGUGAAGGCAUAGUCCAGGGAGUGGCGAAAGUCACACAAACCGG

The data set covers variants of B1. The experiment in a line: reverse-splicing fitness (ratio to wild type); higher = more active; in vitro selection; Mg2+ level not given. An outline of the steps:
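An in vitro group I ribozyme library with randomized positions was T7-transcribed and gel-purified. In triplicate, 10 pmol RNA in EPPS pH 7.5 was reacted with 50 pmoles of a 30-nt RNA substrate for 1 h at 37 °C across several added MgCl2 levels (1–48 mM), then stopped with EDTA. Products were reverse transcribed from a substrate-complementary primer, PCR-amplified and sequenced (HiSeq 4000). Fitness is a variant's read proportion after selection over that before, normalised to wild type.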
Consider GUGCCUUGCGCCGGGAAACCACGCAAGGGAUGGUGUCAAAUUCGGCGAAACCUAAGCGCCCGCCCGGGCGUAUGGCAACGCUGAGCCAAGCUUCGGCGCCUGCGCCGAUGGAGGUGUAGGGACUAGACGGCACCCACCUAAGGCAAACGAUAUGGUGAAGGCAUAGUCUAGGGAGCGGCGAAAGUCACACAAACCGG [C82U A111G A120G C150A C169U U176C], for which the reverse-splicing fitness is 0.0157. The result for GUGCCUUGCGCCGGGAAACCACGCAAGGGAUGGUGUCAAAUUCGGCGAAACCUAAGCGCCCGCCCGGGCGUAUGGCAACGCUGAGCCAAGCUUCGGCGCCUGCGCCGAUGGAGGUGUAGGGACUAGACGGCACCCACCUAAGGCAAACGAUAUGGUGAAGGCAUAGUCUAGGGAGAGGCGAAAGUCACACAAACCGG [C82U A111G A120G C150A C169U U176A] reads 0.0248; that for GUGCCUUGCGCCGGGAAACCACGCAAGGGAUGGUGUCAAAUUCGGCGAAACCUAAGCGCCCGCCCGGGCGUAUGGCAACGCUGAGCCAAGCUUCGGCGCCUGCGCCGAUGGAGGUGUAGGGACUAGACGGCACCCACCUAAGGCAAACGAUAUGGUGAAGGCAUAGUCUAGGGAGGGGCGAAAGUCACACAAACCGG [C82U A111G A120G C150A C169U U176G], 0.00765.

As to GUGCCUUGCGCCGGGAAACCACGCAAGGGAUGGUGUCAAAUUCGGCGAAACCUAAGCGCCCGCCCGGGCGUAUGGCAACGCUGAGCCAAGCUUCGGCGCCUGCGCCGAUGGAGGUGUAGGGACUAGACGGCACCCACCUAAGGCAAACGGUAUGGUGAAGGCAUAGUCUAGGGAGUGGCGAAAGUCACACAAACCGG [C82U A111G A120G C150G C169U], the reverse-splicing fitness was 0.00822.

In the case of GUGCCUUGCGCCGGGAAACCACGCAAGGGAUGGUGUCAAAUUCGGCGAAACCUAAGCGCCCGCCCGGGCGUAUGGCAACGCUGAGCCAAGCUUCGGCGCCUGCGCCGAUGGAGGUGUAGGGACUAGACGGCACCCACCUAAGGCAAACGGUAUGGUGAAGGCAUAGUCGAGGGAGUGGCGAAAGUCACACAAACCGG [C82U A111G A120G C150G C169G], the reverse-splicing fitness turned out to be 0.00749. GUGCCUUGCGCCGGGAAACCACGCAAGGGAUGGUGUCAAAUUCGGCGAAACCUAAGCGCCCGCCCGGGCGUAUGGCAACGCUGAGCCAAGCUUCGGCGCCUGCGCCGAUGGAGGUGUAGGGACUAGACGGCACCCACCUAAGGCAAACGGUAUGGUGAAGGCAUAGUCAAGGGAGUGGCGAAAGUCACACAAACCGG [C82U A111G A120G C150G C169A]: the reverse-splicing fitness is 0.00895. Take GUGCCUUGCGCCGGGAAACCACGCAAGGGAUGGUGUCAAAUUCGGCGAAACCUAAGCGCCCGCCCGGGCGUAUGGCAACGCUGAGCCAAGCUUCGGCGCCUGCGCCGAUGGAGGUGUAGGGACUAGACGGCACCCACCUAAGGCAAACGUUAUGGUGAAGGCAUAGUCAAGGGAGCGGCGAAAGUCACACAAACCGG [C82U A111G A120G C150U C169A U176C]: the reverse-splicing fitness was 0.0129. For GUGCCUUGCGCCGGGAAACCACGCAAGGGAUGGUGUCAAAUUCGGCGAAACCUAAGCGCCCGCCCGGGCGUAUGGCAACGCUGAGCCAAGCUUCGGCGCCUGCGCCGAUGGAGGUGUAGGGACUAGACGGCACCCACCUAAGGCAAACGUUAUGGUGAAGGCAUAGUCAAGGGAGGGGCGAAAGUCACACAAACCGG [C82U A111G A120G C150U C169A U176G], the reverse-splicing fitness was 0.00504. As for GUGCCUUGCGCCGGGAAACCACGCAAGGGAUGGUGUCAAAUUCGGCGAAACCUAAGCGCCCGCCCGGGCGUAUGGCAACGCUGAGCCAAGCUUCGGCGCCUGCGCCGAUGGAGGUGUAGGGACUAGACGGCACCCACCUAAGGCAAACGUUAUGGUGAAGGCAUAGUCAAGGGAGAGGCGAAAGUCACACAAACCGG [C82U A111G A120G C150U C169A U176A], the figure is 0.0143.

Consider GUGCCUUGCGCCGGGAAACCACGCAAGGGAUGGUGUCAAAUUCGGCGAAACCUAAGCGCCCGCCCGGGCGUAUGGCAACGCUGAGCCAAGCUUCGGCGCCUGCGCCGAUGGAGGUGUAGGGACUAGACGGCACCCACCUAAGGCAAACGUUAUGGUGAAGGCAUAGUCGAGGGAGUGGCGAAAGUCACACAAACCGG [C82U A111G A120G C150U C169G], for which the reverse-splicing fitness was determined as 0.0104.

Regarding GUGCCUUGCGCCGGGAAACCACGCAAGGGAUGGUGUCAAAUUCGGCGAAACCUAAGCGCCCGCCCGGGCGUAUGGCAACGCUGAGCCAAGCUUCGGCGCCUGCGCCGAUGGAGGUGUAGGGACUAGACGGCACCCACCUAAGGCAAACGUUAUGGUGAAGGCAUAGUCAAGGGAGUGGCGAAAGUCACACAAACCGG [C82U A111G A120G C150U C169A], the reverse-splicing fitness is 0.0105.

For the variant GUGCCUUGCGCCGGGAAACCACGCAAGGGAUGGUGUCAAAUUCGGCGAAACCUAAGCGCCCGCCCGGGCGUAUGGCAACGCUGAGCCAAGCUUCGGCGCCUGCGCCGAUGGAGGUGUAGGGACUAGACGGCACCCACCUAAGGCAAACGGUAUGGUGAAGGCAUAGUCCAGGGAGGGGCGAAAGUCACACAAACCGG [C82U A111G A120G C150G U176G], the reverse-splicing fitness came to 0.0029. The result for GUGCCUUGCGCCGGGAAACCACGCAAGGGAUGGUGUCAAAUUCGGCGAAACCUAAGCGCCCGCCCGGGCGUAUGGCAACGCUGAGCCAAGCUUCGGCGCCUGCGCCGAUGGAGGUGUAGGGACUAGACGGCACCCACCUAAGGCAAACGGUAUGGUGAAGGCAUAGUCCAGGGAGAGGCGAAAGUCACACAAACCGG [C82U A111G A120G C150G U176A] reads 0.00527; that for GUGCCUUGCGCCGGGAAACCACGCAAGGGAUGGUGUCAAAUUCGGCGAAACCUAAGCGCCCGCCCGGGCGUAUGGCAACGCUGAGCCAAGCUUCGGCGCCUGCGCCGAUGGAGGUGUAGGGACUAGACGGCACCCACCUAAGGCAAACGGUAUGGUGAAGGCAUAGUCCAGGGAGCGGCGAAAGUCACACAAACCGG [C82U A111G A120G C150G U176C], 0.00816. For GUGCCUUGCGCCGGGAAACCACGCAAGGGAUGGUGUCAAAUUCGGCGAAACCUAAGCGCCCGCCCGGGCGUAUGGCAACGCUGAGCCAAGCUUCGGCGCCUGCGCCGAUGGAGGUGUAGGGACUAGACGGCACCCACCUAAGGCAAACGGUAUGGUGAAGGCAUAGUCGAGGGAGGGGCGAAAGUCACACAAACCGG [C82U A111G A120G C150G C169G U176G], the reverse-splicing fitness worked out at 0.00428.
